This data set concerns the molecule itself. The experiment in a line: native gel or EMSA; TS-actin and associated proteins eluted from StrepTactin resin with 2 mM biotin, run at once on 4-16% NativePAGE, western blot; also samples crosslinked with DSP before lysis. Background: Mobility shift assays separate free from complexed probe on a gel.

B1: Gl14-3-3-HA (endogenously C-terminally 3XHA tagged Gl14-3-3) (natural protein, Giardia lamblia, UniProt E2RU97 1-248, looked up)
chain: MAEAFTREDYVFMAQLNENAERYDEMVETMRKISGMEGELSDKERNLLSVAYKNVIGPRRAAWRIVSSIEAKEKGRQKPNAKRIEQIRVYRQKIEKELSDICNDILKLLQEQFVPRSTNADAKVFYYKMQGDYYRYLAEYSSGEDKEKIAGSALNAYNSAFEISQQLPPTHPIRLGLALNFSVFYYEILASPDRACELARKAFDAAITDLDKLTEESYKDSTLIMQLLRDNLNLWVTDSAGDDNAEEK
notes: the single 14-3-3 homolog of Giardia (Gl14-3-3), GL50803_6430; source: Giardia trophozoites, endogenously tagged, in lysate; not shown: 3XHA, C-terminal, kept
On to B1, for which the stoichiometry N – broadly, the number of molecules, sites or subunits per partner or assembly – worked out at 2.
